Results taken from the supplement of paper PMC11246515.
± gives the standard deviation of the averaged measurements.

Experiment: total protein half-life in vivo (active degradation + dilution); higher = more stable protein
[1] = E. coli NCM3722 delta-clpP delta-lon delta-hslV, growth: N-lim chemostat, doubling time 6 h
[2] = E. coli NCM3722 delta-clpP, growth: N-lim chemostat, doubling time 6 h
[3] = E. coli NCM3722 delta-hslV, growth: N-lim chemostat, doubling time 6 h
[4] = E. coli NCM3722 delta-lon, growth: N-lim chemostat, doubling time 6 h
[5] = E. coli NCM3722 delta-smpB, growth: N-lim chemostat, doubling time 6 h
[6] = wild type E. coli NCM3722, growth: C-lim chemostat, doubling time 3 h
[7] = wild type E. coli NCM3722, growth: C-lim chemostat, doubling time 6 h
[8] = wild type E. coli NCM3722, growth: C-lim chemostat, doubling time 12 h
[9] = wild type E. coli NCM3722, growth: N-lim chemostat, doubling time 6 h
[10] = wild type E. coli NCM3722, growth: N-lim chemostat, doubling time 12 h
[11] = wild type E. coli NCM3722, growth: P-lim chemostat, doubling time 6 h
[12] = wild type E. coli NCM3722, growth: P-lim chemostat, doubling time 12 h

Sequence | total protein half-life in vivo [1] [h] | total protein half-life in vivo [2] [h] | total protein half-life in vivo [3] [h] | total protein half-life in vivo [4] [h] | total protein half-life in vivo [5] [h] | total protein half-life in vivo [6] [h] | total protein half-life in vivo [7] [h] | total protein half-life in vivo [8] [h] | total protein half-life in vivo [9] [h] | total protein half-life in vivo [10] [h] | total protein half-life in vivo [11] [h] | total protein half-life in vivo [12] [h]
MDIIFYHPTFDTQWWIEALRKAIPQARVRAWKSGDNDSADYALVWHPPVEMLAGRDLKAVFALGAGVDSILSKLQAHPEMLNPSVPLFRLEDTGMGEQMQEYAVSQVLHWFRRFDDYRIQQNSSHWQPLPEYHREDFTIGILGAGVLGSKVAQSLQTWRFPLRCWSRTRKSWPGVQSFAGREELSAFLSQCRVLINLLPNTPETVGIINQQLLEKLPDGAYLLNLARGVHVVEDDLLAALDSGKVKGAMLDVFNREPLPPESPLWQHPRVTITPHVAAITRPAEAVEYISRTIAQLEKGERVCGQVDRARGY | 5.02 ± 0.051 | 4.58 ± 0.51 | 5.71 ± 1.3 | 4.67 ± 0.34 | 4.43 ± 0.24 | 2.69 ± 0.43 | 5.64 ± 0.55 | 10.3 ± 1.4 | 4.45 ± 0.25 | 7.3 ± 0.49 | 5.821 ± 0.027 | 11 ± 0.45
MTIWVDADACPNVIKEILYRAAERMQMPLVLVANQSLRVPPSRFIRTLRVAAGFDVADNEIVRQCEAGDLVITADIPLAAEAIEKGAAALNPRGERYTPATIRERLTMRDFMDTLRASGIQTGGPDSLSQRDRQAFAAELEKWWLEVQRSRG [P0A8D3] | 3.56 ± 0.87 | 3.08 | 3.2 ± 0.18 | 3.89 ± 0.53 | 3.16 ± 0.032 | 2.73 ± 0.094 | 4.33 ± 0.21 | 8.06 ± 2.6 | 3.55 ± 0.43 | 4.5 ± 0.6 | 5.28 ± 0.43 | 9.109 ± 0.034
MSSRNNPARVAIVMGSKSDWATMQFAAEIFEILNVPHHVEVVSAHRTPDKLFSFAESAEENGYQVIIAGAGGAAHLPGMIAAKTLVPVLGVPVQSAALSGVDSLYSIVQMPRGIPVGTLAIGKAGAANAALLAAQILATHDKELHQRLNDWRKAQTDEVLENPDPRGAA [P0AG18] | 5.15 ± 0.26 | 4.94 ± 0.41 | 4.8 ± 0.085 | 4.93 ± 0.088 | 4.71 ± 0.3 | 2.77 ± 0.034 | 5.47 ± 0.46 | 9.5 ± 0.76 | 4.67 ± 0.13 | 6.68 ± 0.46 | 5.68 ± 0.13 | 10.9 ± 0.31
MEYKDPMHELLSSLEQIVFKDETQKITLTHRTTSCTEIEQLRKGTGLKIDDFARVLGVSVAMVKEWESRRVKPSSAELKLMRLIQANPALSKQLME [P0A9V5] | – | 0.508 ± 0.1 | – | 0.337 | 0.409 | – | – | – | 0.277 | – | – | –
MKEKTIIIVGGGQAAAMAAASLRQQGFTGELHLFSDERHLPYERPPLSKSMLLEDSPQLQQVLPANWWQENNVHLHSGVTIKTLGRDTRELVLTNGESWHWDQLFIATGAAARPLPLLDALGERCFTLRHAGDAARLREVLQPERSVVIIGAGTIGLELAASATQRRCKVTVIELAATVMGRNAPPPVQRYLLQRHQQAGVRILLNNAIEHVVDGEKVELTLQSGETLQADVVIYGIGISANEQLAREANLDTANGIVIDEACRTCDPAIFAGGDVAITRLDNGALHRCESWENANNQAQIAAAAMLGLPLPLLPPPWFWSDQYSDNLQFIGDMRGDDWLCRGNPETQKAIWFNLQNGVLIGAVTLNQGREIRPIRKWIQSGKTFDAKLLIDENIALKSL | 5.74 ± 1.6 | 1.04 | – | – | – | 3.07 | 2.51 ± 0.54 | 2.78 ± 0.14 | – | 1.3 | 1.03 | 2.31 ± 0.41
MNATAAQTKSLEWLNRLRANPKIPLIVAGSAAVAVMVALILWAKAPDYRTLFSNLSDQDGGAIVSQLTQMNIPYRFSEASGAIEVPADKVHELRLRLAQQGLPKGGAVGFELLDQEKFGISQFSEQVNYQRALEGELSRTIETIGPVKGARVHLAMPKPSLFVREQKSPSASVTVNLLPGRALDEGQISAIVHLVSSAVAGLPPGNVTLVDQGGHLLTQSNTSGRDLNDAQLKYASDVEGRIQRRIEAILSPIVGNGNIHAQVTAQLDFASKEQTEEQYRPNGDESHAALRSRQLNESEQSGSGYPGGVPGALSNQPAPANNAPISTPPANQNNRQQQASTTSNSGPRSTQRNETSNYEVDRTIRHTKMNVGDVQRLSVAVVVNYKTLPDGKPLPLSNEQMKQIEDLTREAMGFSEKRGDSLNVVNSPFNSSDESGGELPFWQQQAFIDQLLAAGRWLLVLLVAWLLWRKAVRPQLTRRAEAMKAVQQQAQAREEVEDAVEVRLSKDEQLQQRRANQRLGAEVMSQRIREMSDNDPRVVALVIRQWINNDHE | 6.55 | 6.44 | – | – | – | 2.6 ± 0.24 | 4.73 ± 0.44 | 6.98 ± 0.67 | – | – | – | –
MEFFKKTALAALVMGFSGAALALPNITILATGGTIAGGGDSATKSNYTVGKVGVENLVNAVPQLKDIANVKGEQVVNIGSQDMNDNVWLTLAKKINTDCDKTDGFVITHGTDTMEETAYFLDLTVKCDKPVVMVGAMRPSTSMSADGPFNLYNAVVTAADKASANRGVLVVMNDTVLDGRDVTKTNTTDVATFKSVNYGPLGYIHNGKIDYQRTPARKHTSDTPFDVSKLNELPKVGIVYNYANASDLPAKALVDAGYDGIVSAGVGNGNLYKSVFDTLATAAKTGTAVVRSSRVPTGATTQDAEVDDAKYGFVASGTLNPQKARVLLQLALTQTKDPQQIQQIFNQY | – | 5.6 ± 1.2 | 6.41 ± 0.082 | 5.53 ± 0.3 | 6.23 ± 0.81 | – | 5.38 ± 0.38 | > 16 | 6.03 ± 0.47 | 12.3 ± 0.7 | 6.54 ± 0.46 | 13 ± 0.46
MINDIKWVQAQRKATDWRQAVEIATRPLVAYGAAQPCYVNGIIENTLNWGPYYLIAPGIALPHARPEQGANYNQVSITTLRTPVAFGNEECDPVWLLLCVSATDANAHILTIQRISQFIDSPQRLTAVGNASTDDALFALVSG | 4.94 | 4.17 ± 0.58 | 4.11 | 4.24 ± 0.33 | 4.08 ± 0.47 | – | 4.65 ± 0.36 | 6.74 ± 0.098 | 4.66 | 8.43 ± 2.6 | 6.04 | –
